{"source": "patent US6407062", "about": "(ST JUDE CHILDREN S RESEARCH HOSPITAL, dated 2000)", "key": {"[1]": {"target": "T1, Hdm2 (Human Double Minute 2, full-length, untagged) (human, UniProt Q00987 1-491)", "T1 construct": "GenBank M92424 printed; also called wild type Hdm2", "T1 sequence (Q00987 whole entry)": "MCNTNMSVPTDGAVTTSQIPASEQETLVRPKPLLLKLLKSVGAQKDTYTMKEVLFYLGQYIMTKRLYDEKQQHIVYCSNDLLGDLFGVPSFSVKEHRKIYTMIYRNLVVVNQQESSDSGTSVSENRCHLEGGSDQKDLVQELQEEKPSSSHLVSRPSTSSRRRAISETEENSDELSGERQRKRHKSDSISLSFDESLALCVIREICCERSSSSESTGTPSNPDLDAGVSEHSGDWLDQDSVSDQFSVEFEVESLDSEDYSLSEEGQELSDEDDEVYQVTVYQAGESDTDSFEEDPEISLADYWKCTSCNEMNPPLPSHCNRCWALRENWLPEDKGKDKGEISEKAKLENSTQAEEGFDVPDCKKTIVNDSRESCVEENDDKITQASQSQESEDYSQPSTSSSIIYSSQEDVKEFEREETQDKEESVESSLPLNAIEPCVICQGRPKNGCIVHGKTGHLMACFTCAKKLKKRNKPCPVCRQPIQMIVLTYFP", "test": "binding assay not described further"}, "[2]": {"target": "T2, Hdm2 140-350 (polyhistidine-tagged, bacterial) (human, UniProt Q00987 140-350)", "T2 construct": "The sense primer places an ATG before residue 141, so position 140 of the construct may be Met; also called Hdm2 140-350 polypeptide; not shown: N-terminal polyhistidine tag of pET28a", "T2 sequence (Q00987 140-350)": "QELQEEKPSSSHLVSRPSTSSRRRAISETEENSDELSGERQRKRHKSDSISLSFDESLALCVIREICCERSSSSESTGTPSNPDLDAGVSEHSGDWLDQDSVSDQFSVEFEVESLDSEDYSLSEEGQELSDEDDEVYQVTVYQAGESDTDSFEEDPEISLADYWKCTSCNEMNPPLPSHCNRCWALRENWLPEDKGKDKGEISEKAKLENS", "test": "immunoprecipitation and blot with bacterial Hdm2 140-350"}, "[3]": {"target": "T3, Hdm2 210-304 (polyhistidine-tagged, bacterial) (human, UniProt Q00987 210-304)", "T3 construct": "The sense primer places an ATG before residue 211; not shown: N-terminal polyhistidine tag of pET28a", "T3 sequence (Q00987 210-304)": "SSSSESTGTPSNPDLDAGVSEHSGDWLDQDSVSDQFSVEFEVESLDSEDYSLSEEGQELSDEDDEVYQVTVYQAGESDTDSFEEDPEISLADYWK", "test": "FPLC affinity chromatography, NaCl gradient then acid"}, "[4]": {"target": "T2, Hdm2 140-350 (polyhistidine-tagged, …)", "test": "FPLC affinity chromatography, ARF polypeptide coupled to Sepharose, NaCl gradient then acid"}, "[5]": {"target": "T4, Mdm2 (Murine Double Minute 2, full-length) (mouse, UniProt P23804 1-489)", "T4 construct": "Full-length protein made in Sf9 cells from a baculovirus, or endogenous in NIH-3T3 cells; GenBank X58876 printed; also called wild type Mdm2; full-length Mdm2", "T4 sequence (P23804 other isoform, or with tags, fused parts or gaps limits assumed)": "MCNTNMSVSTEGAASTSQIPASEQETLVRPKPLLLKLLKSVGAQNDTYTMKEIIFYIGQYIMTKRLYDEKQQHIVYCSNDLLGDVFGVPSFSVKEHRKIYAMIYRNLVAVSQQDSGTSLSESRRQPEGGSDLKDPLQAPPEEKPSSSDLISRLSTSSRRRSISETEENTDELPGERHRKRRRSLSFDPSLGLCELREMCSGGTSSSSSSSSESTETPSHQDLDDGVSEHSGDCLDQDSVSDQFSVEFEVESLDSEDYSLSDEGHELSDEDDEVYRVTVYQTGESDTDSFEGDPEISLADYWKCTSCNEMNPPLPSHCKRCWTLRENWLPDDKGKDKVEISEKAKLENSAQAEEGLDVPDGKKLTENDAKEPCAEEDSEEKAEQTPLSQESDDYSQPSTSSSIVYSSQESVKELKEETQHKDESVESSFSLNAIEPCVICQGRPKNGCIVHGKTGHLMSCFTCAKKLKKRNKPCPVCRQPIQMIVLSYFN", "test": "His-tagged syn-ARF N37 mixed with Mdm2 from Sf9 cells, immunoprecipitation with 2A10 or anti-polyhistidine and blot"}, "[6]": {"target": "endogenous wild-type p53 of mouse fibroblasts (NIH-3T3 cells, MEFs) (mouse, UniProt P02340 1-390)", "sequence (P02340 whole entry)": "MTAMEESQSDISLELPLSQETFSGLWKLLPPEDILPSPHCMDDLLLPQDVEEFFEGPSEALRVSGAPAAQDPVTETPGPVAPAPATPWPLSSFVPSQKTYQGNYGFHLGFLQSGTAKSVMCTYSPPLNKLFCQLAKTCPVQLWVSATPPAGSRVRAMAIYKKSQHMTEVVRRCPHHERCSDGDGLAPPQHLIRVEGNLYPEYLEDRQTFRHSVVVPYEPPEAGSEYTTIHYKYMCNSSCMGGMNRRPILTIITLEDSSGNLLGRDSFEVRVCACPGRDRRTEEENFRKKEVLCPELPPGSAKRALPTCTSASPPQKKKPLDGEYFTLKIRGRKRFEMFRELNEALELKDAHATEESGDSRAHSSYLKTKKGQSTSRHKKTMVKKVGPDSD", "test": "sequential immunoprecipitation from NIH-3T3 cells; EMSA"}, "CDK4 (mouse, endogenous) [7]": {"target": "T5, CDK4 (mouse, endogenous) (mouse, UniProt P30285 2-303)", "T5 sequence (looked up)": "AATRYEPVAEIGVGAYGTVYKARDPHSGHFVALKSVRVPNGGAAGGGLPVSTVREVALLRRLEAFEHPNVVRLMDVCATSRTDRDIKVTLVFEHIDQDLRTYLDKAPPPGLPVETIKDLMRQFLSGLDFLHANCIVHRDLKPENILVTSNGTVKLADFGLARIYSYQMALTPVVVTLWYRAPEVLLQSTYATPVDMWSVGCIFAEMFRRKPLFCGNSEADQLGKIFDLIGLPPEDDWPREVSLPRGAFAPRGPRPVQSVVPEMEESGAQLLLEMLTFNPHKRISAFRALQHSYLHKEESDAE", "test": "immunoprecipitates from cell lysates blotted with anti-ARF-p19; Sf9 baculovirus reconstruction also gave no convincing evidence"}, "CDC2 (mouse, endogenous)": {"target": "T6, CDC2 (mouse, endogenous) (mouse, UniProt P11440 1-297)", "T6 construct": "also called CDK1", "T6 sequence (P11440 whole entry)": "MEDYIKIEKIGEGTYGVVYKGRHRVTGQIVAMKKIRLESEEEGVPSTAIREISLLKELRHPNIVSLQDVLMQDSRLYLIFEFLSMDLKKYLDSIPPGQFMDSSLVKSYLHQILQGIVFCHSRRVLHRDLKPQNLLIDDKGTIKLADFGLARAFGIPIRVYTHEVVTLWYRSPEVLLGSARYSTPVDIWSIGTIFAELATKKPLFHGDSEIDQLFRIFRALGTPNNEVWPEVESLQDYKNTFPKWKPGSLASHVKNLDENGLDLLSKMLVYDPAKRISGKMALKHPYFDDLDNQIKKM", "test": "immunoprecipitates from cell lysates blotted with anti-ARF-p19; Sf9 baculovirus reconstruction also gave no convincing evidence"}, "CDK6 (mouse, endogenous)": {"target": "CDK6 (mouse, endogenous) (mouse, UniProt Q64261 1-326)", "sequence (Q64261 whole entry)": "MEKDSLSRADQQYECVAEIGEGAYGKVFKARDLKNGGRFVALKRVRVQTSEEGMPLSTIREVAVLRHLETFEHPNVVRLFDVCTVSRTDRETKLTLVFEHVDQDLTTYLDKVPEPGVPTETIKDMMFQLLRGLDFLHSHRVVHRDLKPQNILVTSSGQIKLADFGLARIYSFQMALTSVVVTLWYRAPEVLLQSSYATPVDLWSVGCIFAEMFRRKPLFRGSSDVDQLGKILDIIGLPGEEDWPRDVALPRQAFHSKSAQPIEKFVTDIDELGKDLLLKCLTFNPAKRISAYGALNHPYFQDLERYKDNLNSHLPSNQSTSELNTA", "test": "immunoprecipitates from cell lysates blotted with anti-ARF-p19; Sf9 baculovirus reconstruction also gave no convincing evidence"}, "[8]": {"target": "cyclin D1 (mouse, endogenous) (mouse, UniProt P25322 1-295)", "sequence (P25322 whole entry)": "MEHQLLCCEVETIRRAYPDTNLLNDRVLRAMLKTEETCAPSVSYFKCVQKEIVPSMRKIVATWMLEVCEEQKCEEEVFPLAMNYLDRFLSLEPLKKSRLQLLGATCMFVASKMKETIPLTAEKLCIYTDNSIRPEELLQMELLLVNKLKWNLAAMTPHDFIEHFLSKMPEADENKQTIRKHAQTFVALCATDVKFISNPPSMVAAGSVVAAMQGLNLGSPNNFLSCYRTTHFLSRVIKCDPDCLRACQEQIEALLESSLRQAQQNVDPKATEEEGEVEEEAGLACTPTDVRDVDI", "test": "immunoprecipitates from cell lysates blotted with anti-ARF-p19; Sf9 baculovirus reconstruction also gave no convincing evidence"}, "[9]": {"target": "cyclin D2 (mouse, endogenous) (mouse, UniProt P30280 1-289)", "sequence (P30280 whole entry)": "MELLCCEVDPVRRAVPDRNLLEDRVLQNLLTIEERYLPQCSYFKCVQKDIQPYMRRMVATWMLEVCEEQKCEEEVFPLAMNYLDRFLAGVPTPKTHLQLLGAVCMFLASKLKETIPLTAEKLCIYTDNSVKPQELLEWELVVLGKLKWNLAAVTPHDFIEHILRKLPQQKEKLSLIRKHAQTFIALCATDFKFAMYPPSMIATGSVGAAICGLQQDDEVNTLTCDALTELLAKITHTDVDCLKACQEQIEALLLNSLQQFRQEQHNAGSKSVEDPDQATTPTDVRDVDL", "test": "immunoprecipitates from cell lysates blotted with anti-ARF-p19; Sf9 baculovirus reconstruction also gave no convincing evidence"}, "[10]": {"target": "cyclin A (mouse, endogenous) (mouse, UniProt P51943 1-422, limits assumed)", "sequence (P51943 whole entry)": "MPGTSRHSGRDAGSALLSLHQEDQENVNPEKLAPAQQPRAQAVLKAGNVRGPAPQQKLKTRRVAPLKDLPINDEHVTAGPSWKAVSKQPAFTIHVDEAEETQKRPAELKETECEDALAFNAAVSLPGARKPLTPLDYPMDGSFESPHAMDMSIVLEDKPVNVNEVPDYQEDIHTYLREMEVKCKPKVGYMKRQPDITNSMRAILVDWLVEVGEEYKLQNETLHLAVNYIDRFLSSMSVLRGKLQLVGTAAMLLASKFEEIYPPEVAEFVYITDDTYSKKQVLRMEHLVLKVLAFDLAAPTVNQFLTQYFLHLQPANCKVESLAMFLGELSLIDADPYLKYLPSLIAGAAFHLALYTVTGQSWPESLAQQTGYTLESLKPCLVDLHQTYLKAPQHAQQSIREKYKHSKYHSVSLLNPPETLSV", "test": "immunoprecipitates from cell lysates blotted with anti-ARF-p19; Sf9 baculovirus reconstruction also gave no convincing evidence"}, "CDK4 (mouse, endogenous) [11]": {"target": "T5, CDK4 (mouse, endogenous)", "test": "p16 immunoprecipitates blotted with antiserum to CDK4"}, "[12]": {"target": "T2, Hdm2 140-350 (polyhistidine-tagged, …)", "test": "FPLC affinity chromatography on peptide coupled to Sepharose"}, "[13]": {"target": "T3, Hdm2 210-304 (polyhistidine-tagged, …)", "test": "FPLC affinity chromatography on peptide coupled to Sepharose"}}, "data": [{"binder": "ARF N62 (mouse p19^ARF N-terminal 62 amino acids, HA-tagged) (other, not shown: small tags and cut ends, Produced in Sf9 cells; also called HA-tagged N62; ARF N62 mutant) MGRRFLVTVRIQRAGRPLQERVFLVKFVRSRRPRTASCALAFVNMLLRLERILRRGPHRNPG", "values": [{"measurement": "binding result", "setting": "[1]", "value": "binds"}]}, {"binder": "mouse p19^ARF Δ15-25 (HA-tagged deletion mutant) (other, not shown: N-terminal HA tag of the HA-tagged ARF cDNA template) MGRRFLVTVRIQRAKFVRSRRPRTASCALAFVNMLLRLERILRRGPHRNPGPGDDDGQRSRSSSSAQLRCRFELRGPHYLLPPGARRSAGRLPGHAGGAARVRGSAGCARCLGSPAARLGPRAGTSRHRAIFAFRWVLFVFRWVVFVYRWERRPDRRA", "values": [{"measurement": "binding result", "setting": "[2]", "value": "binds"}]}, {"binder": "MGRRFLVTVRIQRAGRPLQERVFLVKFVRSRRPRTAS (also called Synthetic ARF N37; recombinant syn-ARF N37; not shown: N-terminal polyhistidine tag of pET28a)", "note": "[syn-ARF N37 (polyhistidine-tagged mouse ARF residues 1-37, made in bacteria)]", "values": [{"measurement": "binding result", "setting": "[3]", "value": "binds"}, {"measurement": "binding result", "setting": "[4]", "value": "binds"}, {"measurement": "binding result", "setting": "[5]", "value": "binds"}]}, {"binder": "ARF-p19 (mouse, full-length 169 amino acid protein) (other, also called p19^ARF; p19^ARF protein) MGRRFLVTVRIQRAGRPLQERVFLVKFVRSRRPRTASCALAFVNMLLRLERILRRGPHRNPGPGDDDGQRSRSSSSAQLRCRFELRGPHYLLPPGARRSAGRLPGHAGGAARVRGSAGCARCLGSPAARLGPRAGTSRHRAIFAFRWVLFVFRWVVFVYRWERRPDRRA", "values": [{"measurement": "binding result", "setting": "[6]", "value": "binds"}, {"measurement": "binding result", "setting": "CDK4 (mouse, endogenous) [7]", "value": "no binding"}, {"measurement": "binding result", "setting": "CDC2 (mouse, endogenous)", "value": "no binding"}, {"measurement": "binding result", "setting": "CDK6 (mouse, endogenous)", "value": "no binding"}, {"measurement": "binding result", "setting": "[8]", "value": "no binding"}, {"measurement": "binding result", "setting": "[9]", "value": "no binding"}, {"measurement": "binding result", "setting": "[10]", "value": "no binding"}]}, {"binder": "mouse p19^ARF Δ1-14/Δ26-37 (HA-tagged double-deletion mutant) (other, also called ARF Δ1-14/26-37; not shown: N-terminal HA tag) GRPLQERVFLVCALAFVNMLLRLERILRRGPHRNPGPGDDDGQRSRSSSSAQLRCRFELRGPHYLLPPGARRSAGRLPGHAGGAARVRGSAGCARCLGSPAARLGPRAGTSRHRAIFAFRWVLFVFRWVVFVYRWERRPDRRA", "values": [{"measurement": "binding result", "setting": "[2]", "value": "no binding"}]}, {"binder": "mouse p19^ARF Δ26-37 (HA-tagged deletion mutant) (other, also called HA-ARF Δ26-37; not shown: N-terminal HA tag) MGRRFLVTVRIQRAGRPLQERVFLVCALAFVNMLLRLERILRRGPHRNPGPGDDDGQRSRSSSSAQLRCRFELRGPHYLLPPGARRSAGRLPGHAGGAARVRGSAGCARCLGSPAARLGPRAGTSRHRAIFAFRWVLFVFRWVVFVYRWERRPDRRA", "values": [{"measurement": "binding result", "setting": "[2]", "value": "binds"}]}, {"binder": "InK4a-p16 (mouse) (other, UniProt P51480 1-168, looked up, not used; also called p16^INK4a) MESAADRLARAAAQGRVHDVRALLEAGVSPNAPNSFGRTPIQVMMMGNVHVAALLLNYGADSNCEDPTTFSRPVHDAAREGFLDTLVVLHGSGARLDVRDAWGRLPLDLAQERGHQDIVRYLRSAGCSLCSAGWSLCTAGNVAQTDGHSFSSSTPRALELRGQSQEQS", "values": [{"measurement": "binding result", "setting": "CDK4 (mouse, endogenous) [11]", "value": "binds"}]}, {"binder": "syn-ARF N64 (polyhistidine-tagged mouse ARF residues 1-64, made in bacteria) (other, also called minigene-encoded N64 polypeptide; not shown: N-terminal polyhistidine tag of pET28a) MGRRFLVTVRIQRAGRPLQERVFLVKFVRSRRPRTASCALAFVNMLLRLERILRRGPHRNPGPG", "values": [{"measurement": "binding result", "setting": "[1]", "value": "binds"}]}, {"binder": "GRPLQERVFLV (Coupled to Sepharose; also called ARF 15-25)", "note": "[mouse ARF synthetic peptide 15-25]", "values": [{"measurement": "binding result", "setting": "[12]", "value": "no binding"}, {"measurement": "binding result", "setting": "[13]", "value": "no binding"}]}, {"binder": "mouse p19^ARF Δ1-14 (HA-tagged deletion mutant) (other, also called p19^ARF mutant lacking amino acid residues 1-14; not shown: N-terminal HA tag of the HA-tagged ARF cDNA template) GRPLQERVFLVKFVRSRRPRTASCALAFVNMLLRLERILRRGPHRNPGPGDDDGQRSRSSSSAQLRCRFELRGPHYLLPPGARRSAGRLPGHAGGAARVRGSAGCARCLGSPAARLGPRAGTSRHRAIFAFRWVLFVFRWVVFVYRWERRPDRRA", "values": [{"measurement": "binding result", "setting": "[2]", "value": "binds"}]}]}
